Experimental data as given in article PMC10164549.

Columns and labels:
[1] = biological target: Salmonella enterica serovar Montevideo DpdB, His6 tag removed (Salmonella enterica subsp. enterica serotype Montevideo); assay: SEC
[2] = biological target: Salmonella enterica serovar Montevideo DpdB, His6-tagged (Salmonella enterica subsp. enterica serotype Montevideo); assay: SEC-SAXS + SEC-MALS
DpdA wild type = biological target: T1, DpdA wild type (Salmonella enterica subsp. enterica …, UniProt P0DW33 1-416); assay: EMSA
T1 sequence: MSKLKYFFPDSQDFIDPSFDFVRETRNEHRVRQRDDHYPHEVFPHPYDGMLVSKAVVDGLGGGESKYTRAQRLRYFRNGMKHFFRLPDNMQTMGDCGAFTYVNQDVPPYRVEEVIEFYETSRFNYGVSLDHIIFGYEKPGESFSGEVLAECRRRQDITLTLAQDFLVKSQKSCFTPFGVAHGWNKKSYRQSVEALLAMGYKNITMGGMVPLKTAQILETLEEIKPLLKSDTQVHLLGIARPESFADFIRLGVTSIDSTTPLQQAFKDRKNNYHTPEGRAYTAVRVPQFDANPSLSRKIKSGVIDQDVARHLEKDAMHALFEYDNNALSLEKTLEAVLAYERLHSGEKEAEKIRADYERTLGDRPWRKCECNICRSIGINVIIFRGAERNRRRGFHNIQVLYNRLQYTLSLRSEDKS

DpdA F265A = biological target: T2, DpdA F265A (Salmonella enterica subsp. enterica …, UniProt P0DW33 1-416, F265A); assay: EMSA
T2 sequence: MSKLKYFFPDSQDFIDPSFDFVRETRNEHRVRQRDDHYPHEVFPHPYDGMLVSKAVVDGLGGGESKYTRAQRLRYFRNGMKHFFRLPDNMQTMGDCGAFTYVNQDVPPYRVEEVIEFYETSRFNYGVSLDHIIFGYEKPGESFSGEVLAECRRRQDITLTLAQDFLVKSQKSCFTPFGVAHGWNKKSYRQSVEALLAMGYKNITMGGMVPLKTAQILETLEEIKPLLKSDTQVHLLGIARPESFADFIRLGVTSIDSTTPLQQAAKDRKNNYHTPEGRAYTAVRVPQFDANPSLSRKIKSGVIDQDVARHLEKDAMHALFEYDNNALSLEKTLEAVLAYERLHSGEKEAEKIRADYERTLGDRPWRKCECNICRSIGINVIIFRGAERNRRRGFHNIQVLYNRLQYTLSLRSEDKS

DpdA D95A = biological target: T3, DpdA D95A (Salmonella enterica subsp. enterica …, UniProt P0DW33 1-416, D95A); assay: SEC-SAXS/MALS
T3 sequence: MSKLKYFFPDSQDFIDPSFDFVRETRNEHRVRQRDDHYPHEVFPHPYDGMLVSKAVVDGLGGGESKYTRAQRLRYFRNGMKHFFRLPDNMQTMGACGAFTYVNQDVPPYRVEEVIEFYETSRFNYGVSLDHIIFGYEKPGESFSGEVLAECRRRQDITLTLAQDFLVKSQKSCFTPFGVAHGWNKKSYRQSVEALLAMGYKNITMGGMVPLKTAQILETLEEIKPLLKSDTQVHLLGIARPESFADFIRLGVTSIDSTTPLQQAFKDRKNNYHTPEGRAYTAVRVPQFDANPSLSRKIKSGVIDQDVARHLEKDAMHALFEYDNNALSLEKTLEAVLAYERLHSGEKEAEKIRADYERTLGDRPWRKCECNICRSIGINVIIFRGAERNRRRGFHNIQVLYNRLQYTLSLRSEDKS

Molecule: Salmonella enterica serovar Montevideo DpdB, His6 tag removed (enzyme)
- stoichiometry N [1]: 2

Molecule: Salmonella enterica serovar Montevideo DpdB, His6-tagged (enzyme)
- stoichiometry N [2]: 2

B1: 28 bp DNA duplex spiked with 1% 6-FAM-labeled strand (dsDNA)
DNA 1: GGGGTTTTCGCCAGCTGGCGTTTTGGGG
DNA 2: CCCCAAAACGCCAGCTGGCGAAAACCCC
- Kd (DpdA wild type): 3.4 ± 0.2 µM
- Kd (DpdA F265A): 2.3 ± 0.1 µM

B2: 28 bp DNA duplex (28bpDuplexF/R) (dsDNA)
DNA 1: GGGGTTTTCGCCAGCTGGCGTTTTGGGG
DNA 2: CCCCAAAACGCCAGCTGGCGAAAACCCC
- binding result (DpdA D95A): binds
